Assay results reported in US8663616B2, “Enzymatic peracid generation for use in oral care products” (E I du Pont de Nemours and Company, priority 2010, dated 2014).

How the values were obtained:
Assay type in all cases: biochemical
[1] = M. smegmatis aryl esterase constructs, peracetic acid in solution (Example 10); details: 0.5 μM enzyme, 100 mM triacetin, 100 mM H2O2, pH 7.2, 30 min, 37° C.; no enzyme 158
Method: (§1) The detection of peracetic acid followed the method described in Pinkernell et. al. (Analyst, 1997, 122, 567) using colorimetric detection of 2,2′-azino-bis(3-ethylbenzothiazoline(-6-sulfonate (ABTS) oxidation by peracetic acid. Following the formation of peracetic acid with the addition of triacetin and hydrogen peroxide, 90 μL of solution was added to 10 μL of 0.1 M H3PO4 in a well plate. 50 μL of 1 M acetic acid, 50 μL of 0.5 g/L ABTS and 50 μL of 0.002 g/L of KI was added. The solution was allowed to develop for 5 min. The absorbance of the solution was measured at 405 nm using a microplate reader. The peracetic acid concentration was calculated based on a standard curve developed simultaneously using peracetic acid reagent solution.
For aryl esterase constructs, the enzyme activity in solution was measured by making a 1 mL solution of 0.5 μM of each enzyme, 100 mM triacetin, and 100 mM H2O2 in 100 mM phosphate buffer, pH 7.2. The solution was mixed and incubated for 30 min, at 37° C. As described in Example 7, the reaction was stopped by removing a portion to H3PO4 and a 10 μL aliquot was removed and diluted for detection via ABTS oxidation.

[2] = M. smegmatis aryl esterase constructs, peracetic acid when bound to hydroxyapatite particles (Example 10); details: 33 mg HAP particles exposed to 10 μM enzyme; 100 mM triacetin, 100 mM H2O2, 30 min, 37° C.; no enzyme 323
Method: as §1
For assessment of binding and activity on hydroxyapatite, the aryl esterase enzymes were exposed to hydroxyapatite particles as described in Example 8 using 33 mg of buffer washed HAP particles (Macro-prep Ceramic Hydroxyapatite TYPE I, 80 μm size BioRad, Hercules, Calif.) using a 10 μM solution in 10 mM phosphate buffer. Following centrifugation and removal of the enzyme solution, the particles were rinsed with phosphate butter by centrifuging and removing the supernatant. A 200 μL solution containing 100 mM triacetin, 100 mM H2O2 and 100 mM phosphate buffer, pH 7.2 was added to the particles and incubated at 37° C. for 30 min. As described in Example 7, the reaction was stopped by removing a portion to H3PO4 and a 10 μL aliquot was removed diluted for detection via ABTS oxidation.

[3] = P. fluorescens perhydrolase constructs, peracetic acid in solution (Example 10); details: 2 μM enzyme, 100 mM H2O2, 1 M sodium acetate pH 5.5, 30 min, 37° C.; no enzyme 9
Method: as §1
(§2) For P. fluorescens constructs, the solution activity was measured by mixing a 1 mL solution containing 2 μM enzyme, 100 mM H2O2 in a 1 M sodium acetate buffer, pH 5.5. The solution was incubated at 37° C. for 30 min. As described in Example 7, the reaction was stopped by removing a portion to H3PO4 and a 10 μL aliquot was removed and diluted for detection via ABTS oxidation. For assessment of binding and activity on hydroxyapatite, the P. fluorescens enzymes were exposed to hydroxyapatite particles at 20 μM in 10 mM phosphate buffer as described in Example 8 using 100 mg of buffer washed HAP particles (Macro-prep Ceramic Hydroxyapatite TYPE I, 80 μm size BioRad, Hercules, Calif.). Following centrifugation and removal of the enzyme solution, the particles were rinsed with phosphate butter by centrifuging and removing the supernatant. A 200 μL solution containing 300 mM H2O2 in 1 M sodium acetate buffer, pH 5.5 was added to the particles and incubated at 37° C. for 10 min. As described in Example 7, the reaction was stopped by removing a portion to H3PO4 and a 10 μL aliquot was removed and diluted for detection via ABTS oxidation.

[4] = P. fluorescens perhydrolase constructs, peracetic acid when bound to hydroxyapatite particles (Example 10); details: 100 mg HAP particles exposed to 20 μM enzyme; 300 mM H2O2, 1 M sodium acetate pH 5.5, 10 min, 37° C.; no enzyme 17
Method: as §1, §2

Molecule | Peracetic acid (ppm) In Solution [1] | Peracetic acid (ppm) On Hydroxyapatite [2] | Peracetic acid (ppm) In Solution [3] | Peracetic acid (ppm) On Hydroxyapatite [4]
EZ-36: M. smegmatis aryl esterase ArE S54V, untargeted, SEQ ID NO: 460 (protein, listed as Mycobacterium smegmatis) MAKRILCFGDSLTWGWVPVEDGAPTERFAPDVRWTGVLAQQLGADFEVIEEGLVARTTNIDDPTDPRLNGASYLPSCLATHLPLDLVIIMLGTNDTKAYFRRTPLDIALGMSVLVTQVLTSAGGVGTTYPAPKVLVVSPPPLAPMPHPWFQLIFEGGEQKTTELARVYSALASFMKVPFFDAGSVISTDGVDGIHFTEANNRDLGVALAEQVRSLL | 2697 ppm | 452 ppm |  | 
EZ-44: Pfl-link1-HC263-H6, SEQ ID NO: 479 (protein) MSTFVAKDGTQIYFKDWGSGKPVLFSHGWPLDADMWEYQMEYLSSRGYRTIAFDRRGFGRSDQPWTGNDYDTFADDIAQLIEHLDLKEVTLVGFSMGGGDVARYIARHGSARVAGLVLLGAVTPLFGQKPDYPQGVPLDVFARFKTELLKDRAQFISDFNAPFYGINKGQVVSQGVQTQTLQIALLASLKATVDCVTAFAETDFRPDMAKIDVPTLVIHGDGDQIVPFETTGKVAAELIKGAELKVYKDAPHGFAVTHAQQLNEDLLAFLKRGPGSGGAGSPGSAGGPGSPSAQSQLPDKHSGLHERAPQRYGPEPEPEPEPIPEPPKEAPVVIEKPKPKPKPKPKPPAHDHKNQKETHQRHAAGSGGGGSPHHHH |  |  | 58 ppm | 97 ppm
EZ-43: Pfl-link1-DenP308-H6, SEQ ID NO: 467 (protein) MSTFVAKDGTQIYFKDWGSGKPVLFSHGWPLDADMWEYQMEYLSSRGYRTIAFDRRGFGRSDQPWTGNDYDTFADDIAQLIEHLDLKEVTLVGFSMGGGDVARYIARHGSARVAGLVLLGAVTPLFGQKPDYPQGVPLDVFARFKTELLKDRAQFISDFNAPFYGINKGQVVSQGVQTQTLQIALLASLKATVDCVTAFAETDFRPDMAKIDVPTLVIHGDGDQIVPFETTGKVAAELIKGAELKVYKDAPHGFAVTHAQQLNEDLLAFLKRGPGSGGAGSPGSAGGPGSDPTKPPRTPTANTSRPHHNFGSGGGGSPHHHHHH |  |  | 79 ppm | 68 ppm
EZ-42: Pfl-link1-(GK)5-H6, SEQ ID NO: 466 (protein) MSTFVAKDGTQIYFKDWGSGKPVLFSHGWPLDADMWEYQMEYLSSRGYRTIAFDRRGFGRSDQPWTGNDYDTFADDIAQLIEHLDLKEVTLVGFSMGGGDVARYIARHGSARVAGLVLLGAVTPLFGQKPDYPQGVPLDVFARFKTELLKDRAQFISDFNAPFYGINKGQVVSQGVQTQTLQIALLASLKATVDCVTAFAETDFRPDMAKIDVPTLVIHGDGDQIVPFETTGKVAAELIKGAELKVYKDAPHGFAVTHAQQLNEDLLAFLKRGPGSGGAGSPGSAGGPGSGKGKGKGKGKHHHHHH |  |  | 64 ppm | 63 ppm
